According to PMC10925063, “FUS unveiled in mitochondrial DNA repair and targeted ligase-1 expression rescues repair-defects in FUS-linked motor neuron disease” (Nature Communications, 2024):

T1: Tom20 (human (endogenous in fibroblasts and …, UniProt Q15388 1-145))
T1 construct: Tom20, mitochondria-specific marker, human, endogenous; source: endogenous, in fibroblasts and iPSC-derived motor neurons
T1 sequence (looked up): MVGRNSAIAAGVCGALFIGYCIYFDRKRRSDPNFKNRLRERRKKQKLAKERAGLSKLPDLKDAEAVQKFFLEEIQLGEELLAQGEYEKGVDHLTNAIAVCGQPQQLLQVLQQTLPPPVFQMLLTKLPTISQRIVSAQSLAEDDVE

B1: Fused in Sarcoma (FUS), endogenous wild type (natural protein, UniProt P35637 1-526, looked up)
chain: MASNDYTQQATQSYGAYPTQPGQGYSQQSSQPYGQQSYSGYSQSTDTSGYGQSSYSSYGQSQNTGYGTQSTPQGYGSTGGYGSSQSSQSSYGQQSSYPGYGQQPAPSSTSGSYGSSSQSSSYGQPQSGSYSQQPSYGGQQQSYGQQQSYNPPQGYGQQNQYNSSSGGGGGGGGGGNYGQDQSSMSSGGGSGGGYGNQDQSGGGGSGGYGQQDRGGRGRGGSGGGGGGGGGGYNRSSGGYEPRGRGGGRGGRGGMGGSDRGGFNKFGGPRDQGSRHDSEQDNSDNNTIFVQGLGENVTIESVADYFKQIGIIKTNKKTGQPMINLYTDRETGKLKGEATVSFDDPPSAKAAIDWFDGKEFSGNPIKVSFATRRADFNRGGGNGRGGRGRGGPMGRGGYGGGGSGGGGRGGFPSGGGGGGGQQRAGDWKCPNPTCENMNFSWRNECNQCKAPKPDGPGGGPGGSHMGGNYGDDRRGGRGGYDRGGYRGRGGDRGGFRGGRGGGDRGGFGPGKMDSRGEHRQDRRERPY
notes: Fused in Sarcoma (FUS), human, endogenous wild type; also called FUS WT; WT FUS; source: endogenous, in HEK293 cells, control fibroblasts, iPSC-derived motor neurons and NPSCs
B2: FUS P525L, endogenous mutant of ALS patient-derived cells (natural protein, UniProt P35637 1-526, looked up)
chain: MASNDYTQQATQSYGAYPTQPGQGYSQQSSQPYGQQSYSGYSQSTDTSGYGQSSYSSYGQSQNTGYGTQSTPQGYGSTGGYGSSQSSQSSYGQQSSYPGYGQQPAPSSTSGSYGSSSQSSSYGQPQSGSYSQQPSYGGQQQSYGQQQSYNPPQGYGQQNQYNSSSGGGGGGGGGGNYGQDQSSMSSGGGSGGGYGNQDQSGGGGSGGYGQQDRGGRGRGGSGGGGGGGGGGYNRSSGGYEPRGRGGGRGGRGGMGGSDRGGFNKFGGPRDQGSRHDSEQDNSDNNTIFVQGLGENVTIESVADYFKQIGIIKTNKKTGQPMINLYTDRETGKLKGEATVSFDDPPSAKAAIDWFDGKEFSGNPIKVSFATRRADFNRGGGNGRGGRGRGGPMGRGGYGGGGSGGGGRGGFPSGGGGGGGQQRAGDWKCPNPTCENMNFSWRNECNQCKAPKPDGPGGGPGGSHMGGNYGDDRRGGRGGYDRGGYRGRGGDRGGFRGGRGGGDRGGFGPGKMDSRGEHRQDRRERLY
notes: Fused in Sarcoma (FUS), human, with the ALS patient mutation P525L; source: endogenous, in ALS patient-derived fibroblasts, iPSC-derived motor neurons and NPSCs
B3: FUS R521H, endogenous mutant of ALS patient-derived cells (natural protein, UniProt P35637 1-526, looked up)
chain: MASNDYTQQATQSYGAYPTQPGQGYSQQSSQPYGQQSYSGYSQSTDTSGYGQSSYSSYGQSQNTGYGTQSTPQGYGSTGGYGSSQSSQSSYGQQSSYPGYGQQPAPSSTSGSYGSSSQSSSYGQPQSGSYSQQPSYGGQQQSYGQQQSYNPPQGYGQQNQYNSSSGGGGGGGGGGNYGQDQSSMSSGGGSGGGYGNQDQSGGGGSGGYGQQDRGGRGRGGSGGGGGGGGGGYNRSSGGYEPRGRGGGRGGRGGMGGSDRGGFNKFGGPRDQGSRHDSEQDNSDNNTIFVQGLGENVTIESVADYFKQIGIIKTNKKTGQPMINLYTDRETGKLKGEATVSFDDPPSAKAAIDWFDGKEFSGNPIKVSFATRRADFNRGGGNGRGGRGRGGPMGRGGYGGGGSGGGGRGGFPSGGGGGGGQQRAGDWKCPNPTCENMNFSWRNECNQCKAPKPDGPGGGPGGSHMGGNYGDDRRGGRGGYDRGGYRGRGGDRGGFRGGRGGGDRGGFGPGKMDSRGEHRQDHRERPY
notes: Fused in Sarcoma (FUS), human, with the ALS patient mutation R521H; source: endogenous, in ALS patient-derived fibroblasts and iPSC-derived motor neurons

Legend:
Conditions in all cases: partners not purified
[1] = biological target: B3; experiment: proximity ligation; Duolink in situ PLA on fixed, permeabilised control and patient iPSC-derived motor neurons (Fig. 1e, 4e); with or without GO; MitoTracker green counterstain; foci counted in 25 cells
[2] = biological target: B2; experiment: as above
[3] = biological target: B1; experiment: as above
[4] = biological target: T1, Tom20; experiment: as above
[5] = biological target: T2, HSP60 (human (endogenous in fibroblasts and …, UniProt P10809 27-573)); experiment: proximity ligation; Duolink in situ PLA on fixed, permeabilised cells with anti-FUS and anti-Tom20 or anti-HSP60; patient derived fibroblasts and motor neurons (Fig. 1c, d; the panel's cell type is not told); untreated or glucose oxidase (GO)
T2 construct: HSP60, mitochondria-specific marker, human, endogenous; source: endogenous, in fibroblasts and motor neurons

[6] = biological target: T1, Tom20; experiment: as above

T2 sequence (P10809 27-573): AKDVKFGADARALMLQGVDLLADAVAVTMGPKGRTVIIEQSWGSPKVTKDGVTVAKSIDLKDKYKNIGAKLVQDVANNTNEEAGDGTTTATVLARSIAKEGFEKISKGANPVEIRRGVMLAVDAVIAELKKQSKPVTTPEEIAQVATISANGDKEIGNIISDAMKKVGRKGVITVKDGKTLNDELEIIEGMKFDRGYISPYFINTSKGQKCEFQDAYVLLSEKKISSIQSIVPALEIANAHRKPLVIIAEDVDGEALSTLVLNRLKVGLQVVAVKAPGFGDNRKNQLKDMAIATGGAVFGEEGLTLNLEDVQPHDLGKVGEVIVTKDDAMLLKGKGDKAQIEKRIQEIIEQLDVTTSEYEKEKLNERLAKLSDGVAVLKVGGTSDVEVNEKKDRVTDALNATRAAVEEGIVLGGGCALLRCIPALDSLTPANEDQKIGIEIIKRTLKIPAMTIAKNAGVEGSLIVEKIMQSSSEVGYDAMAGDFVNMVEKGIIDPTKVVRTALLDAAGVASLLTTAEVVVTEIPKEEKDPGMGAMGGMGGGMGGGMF

Binder | PLA foci, median (GO) [1] | PLA foci, median (GO) [2] | PLA foci, median (GO) [3] | PLA foci, median (GO) [4] | PLA foci, median (untreated) [4] | PLA foci, median (GO) [5] | PLA foci, median (untreated) [5] | PLA foci, median (untreated) [6]
mtDNA Ligase IIIα (mtLig3) (enzyme, UniProt P49916 43-1009, looked up, DNA ligase IIIα, human, endogenous; also called LigIII; mitochondrial version of Lig3; source: endogenous, in HEK293 cells, fibroblasts, iPSC-derived motor neurons and NPSCs) LLHGHPLFLRRKPVLSFQGSHLRSRATYLVFLPGLHVGLCSGPCEMAEQRFCVDYAKRGTAGCKKCKEKIVKGVCRIGKVVPNPFSESGGDMKEWYHIKCMFEKLERARATTKKIEDLTELEGWEELEDNEKEQITQHIADLSSKAAGTPKKKAVVQAKLTTTGQVTSPVKGASFVTSTNPRKFSGFSAKPNNSGEAPSSPTPKRSLSSSKCDPRHKDCLLREFRKLCAMVADNPSYNTKTQIIQDFLRKGSAGDGFHGDVYLTVKLLLPGVIKTVYNLNDKQIVKLFSRIFNCNPDDMARDLEQGDVSETIRVFFEQSKSFPPAAKSLLTIQEVDEFLLRLSKLTKEDEQQQALQDIASRCTANDLKCIIRLIKHDLKMNSGAKHVLDALDPNAYEAFKASRNLQDVVERVLHNAQEVEKEPGQRRALSVQASLMTPVQPMLAEACKSVEYAMKKCPNGMFSEIKYDGERVQVHKNGDHFSYFSRSLKPVLPHKVAHFKDYIPQAFPGGHSMILDSEVLLIDNKTGKPLPFGTLGVHKKAAFQDANVCLFVFDCIYFNDVSLMDRPLCERRKFLHDNMVEIPNRIMFSEMKRVTKALDLADMITRVIQEGLEGLVLKDVKGTYEPGKRHWLKVKKDYLNEGAMADTADLVVLGAFYGQGSKGGMMSIFLMGCYDPGSQKWCTVTKCAGGHDDATLARLQNELDMVKISKDPSKIPSWLKVNKIYYPDFIVPDPKKAAVWEITGAEFSKSEAHTADGISIRFPRCTRIRDDKDWKSATNLPQLKELYQLSKEKADFTVVAGDEGSSTTGGSSEENKGPSGSAVSRKAPSKPSASTKKAEGKLSNSNSKDGNMQTAKPSAMKVGEKLATKSSPVKVGEKRKAADETLCQTKVLLDIFTGVRLYLPPSTPDFSRLRRYFVAFDGDLVQEFDMTSATHVLGSRDKNPAAQQVSPEWIWACIRKRRLVAPC | 4 PLA foci | 2 PLA foci | 8 PLA foci | – | – | – | – | –
B1 | – | – | – | 4 PLA foci | 1 PLA foci | 36 PLA foci | 12 PLA foci | 24 PLA foci
B2 | – | – | – | 13 PLA foci | 4 PLA foci | 64 PLA foci | 51 PLA foci | 218 PLA foci
B3 | – | – | – | 9 PLA foci | 4 PLA foci | 56 PLA foci | 27 PLA foci | 89 PLA foci
